Results as given in US12285470B2, “Trim proteins and galectins cooperate and codirect autophagy and are useful in the treatment of autophagy related diseases” (UNM RAINFOREST INNOVATIONS, priority 2016, dated 2025).
Values belong to the molecule of their own block, whether it stands above or below them.

Experiments:
[1] = target: T1, Galectin-3 (Homo sapiens, UniProt P17931); test: GST pulldown of in vitro translated radiolabeled TRIMs with GST-Galectin-3; format: binding; conditions: in vitro translated 35S-Myc-HA-TRIMs, no ULK1 added
T1 construct: made in house; host or cells: Escherichia coli SoluBL21
T1 sequence (P17931 whole entry): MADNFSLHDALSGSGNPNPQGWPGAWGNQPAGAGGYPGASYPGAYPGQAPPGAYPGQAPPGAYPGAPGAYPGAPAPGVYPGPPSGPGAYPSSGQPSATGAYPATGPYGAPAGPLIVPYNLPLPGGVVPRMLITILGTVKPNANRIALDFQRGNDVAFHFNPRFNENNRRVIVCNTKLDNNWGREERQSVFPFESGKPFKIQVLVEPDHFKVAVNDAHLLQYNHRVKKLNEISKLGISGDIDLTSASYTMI
Text: (§1) GST-fusion proteins were expressed in Escherichia coli SoluBL21 (Amsbio). […] The [^35S] labeled proteins were produced using the TNT T7 Quick Coupled Transcription/Translation System (Promega) in the presence of [^35S] L-methionine. The proteins were eluted from washed beads by boiling in SDS-PAGE gel loading buffer. separated by SDS-PAGE, and radiolabeled proteins were detected in a Fujifilm bioimaging analyzer BAS-5000 (Fuji).

[2] = target: T2, Galectin-8 (Homo sapiens, UniProt O00214); test: GST pulldown of in vitro translated radiolabeled TRIMs with GST-Galectin-8; format: binding; conditions: in vitro translated 35S-Myc-HA-TRIMs
T2 construct: made in house; host or cells: Escherichia coli SoluBL21
T2 sequence (O00214 1-359 isoform O00214-2): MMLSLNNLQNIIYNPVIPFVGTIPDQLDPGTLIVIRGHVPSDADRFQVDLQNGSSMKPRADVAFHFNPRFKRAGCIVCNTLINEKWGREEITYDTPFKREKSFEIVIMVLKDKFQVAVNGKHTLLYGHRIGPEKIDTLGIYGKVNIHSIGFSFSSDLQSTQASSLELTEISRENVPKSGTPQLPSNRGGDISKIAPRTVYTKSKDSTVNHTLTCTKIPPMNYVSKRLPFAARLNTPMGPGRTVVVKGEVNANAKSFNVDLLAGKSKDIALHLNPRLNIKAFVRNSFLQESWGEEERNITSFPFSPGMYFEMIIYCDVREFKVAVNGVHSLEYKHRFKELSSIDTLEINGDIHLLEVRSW
Text: as §1

Molecule: TRIM21: TRIM protein, Accession No. NM_003141, SEQ ID NO: 8
binding to GST-Galectin-3 in GST pulldown [1]: did not
binding to GST-Galectin-8 in GST pulldown [2]: did not

B3: TRIM6: TRIM (tripartite motif) protein tested in GST-Galectin pulldowns (protein)
chain: MTSPVLVDIREEVTCPICLELLTEPLSIDCGHSFCQACITPNGRESVIGQEGERSCPVCQTSYQPGNLRPNRHLANIVRRLREVVLGPGKQLKAVLCADHGEKLQLFCQEDGKVICWLCERSQEHRGHHTFLVEEVAQEYQEKFQESLKKLKNEEQEAEKLTAFIREKKTSWKNQMEPERCRIQTEFNQLRNILDRVEQRELKKLEQEEKKGLRIIEEAENDLVHQTQSLRELISDLERRCQGSTMELLQDVSDVTERSEFWTLRKPEALPTKLRSMFRAPDLKRMLRVCRELTDVQSYWVDVTLNPHTANLNLVLAKNRRQVRFVGAKVSGPSCLEKHYDCSVLGSQHFSSGKHYWEVDVAKKTAWILGVCSNSLGPTFSFNHFAQNHSAYSRYQPQSGYWVIGLQHNHEYRAYEDSSPSLLLSMTVPPRRVGVFLDYEAGTVSFYNVTNHGFPIYTFSKYYFPTTLCPYFNPCNCVIPMTLRRPSS
modifications: left off: small tags and cut ends
notes: TRIM (tripartite motif) protein tested in GST-Galectin pulldowns
binding to GST-Galectin-3 in GST pulldown [1]: bound
binding to GST-Galectin-8 in GST pulldown [2]: bound

B4: TRIM49: TRIM (tripartite motif) protein tested in GST-Galectin pulldowns (protein)
chain: MNSGILQVFQGELICPLCMNYFIDPVTIDCGHSFCRPCFYLNWQDIPFLVQCSECTKSTEQINLKTNIHLKKMASLARKVSLWLFLSSEEQMCGTHRETKKIFCEVDRSLLCLLCSSSQEHRYHRHRPIEWAAEEHREKLLQKMQSLWEKACENHRNLNVETTRTRCWKDYVNLRLEAIRAEYQKMPAFHHEEEKHNLEMLKKKGKEIFHRLHLSKAKMAHRMEILRGMYEELNEMCHKPDVELLQAFGDILHRSESVLLHMPQPLNPELSAGPITGLRDRLNQFRVHITLHHEEANNDIFLYEILRSMCIGCDHQDVPYFTATPRSFLAWGVQTFTSGKYYWEVHVGDSWNWAFGVCNMYRKEKNQNEKIDGKAGLFLLGCVKNDIQCSLFTTSPLMLQYIPKPTSRVGLFLDCEAKTVSFVDVNQSSLIYTIPNCSFSPPLRPIFCCIHF
modifications: left off: small tags and cut ends
notes: as for B3
binding to GST-Galectin-3 in GST pulldown [1]: bound
binding to GST-Galectin-8 in GST pulldown [2]: bound

B6: TRIM20: TRIM protein, Accession No. NM_000243, SEQ ID NO: 7 (protein, listed as Homo sapiens)
chain: MAKTPSDHLLSTLEELVPYDFEKFKFKLQNTSVQKEHSRIPRSQIQRARPVKMATLLVTYYGEEYAVQLTLQVLRAINQRLLAEELHRAAIQEYSTQENGTDDSAASSSLGENKPRSLKTPDHPEGNEGNGPRPYGGGAASLRCSQPEAGRGLSRKPLSKRREKASEGLDAQGKPRTRSPALPGGRSPGPCRALEGGQAEVRLRRNASSAGRLQGLAGGAPGQKECRPFEVYLPSGKMRPRSLEVTISTGEKAPANPEILLTLEEKTAANLDSATEPRARPTPDGGASADLKEGPGNPEHSVTGRPPDTAASPRCHAQEGDPVDGTCVRDSCSFPEAVSGHPQASGSRSPGCPRCQDSHERKSPGSLSPQPLPQCKRHLKQVQLLFCEDHDEPICLICSLSQEHQGHRVRPIEEVALEHKKKIQKQLEHLKKLRKSGEEQRSYGEEKAVSFLKQTEALKQRVQRKLEQVYYFLEQQEHFFVASLEDVGQMVGQIRKAYDTRVSQDIALLDALIGELEAKECQSEWELLQDIGDILHRAKTVPVPEKWTTPQEIKQKIQLLHQKSEFVEKSTKYFSETLRSEMEMFNVPELIGAQAHAVNVILDAETAYPNLIFSDDLKSVRLGNKWERLPDGPQRFDSCIIVLGSPSFLSGRRYWEVEVGDKTAWILGACKTSISRKGNMTLSPENGYWVVIMMKENEYQASSVPPTRLLIKEPPKRVGIFVDYRVGSISFYNVTARSHIYTFASCSFSGPLQPIFSPGTRDGGKNTAPLTICPVGGQGPD
binding to GST-Galectin-3 in GST pulldown [1]: bound
binding to GST-Galectin-8 in GST pulldown [2]: bound

B7: TRIM22: TRIM protein, Accession No. NM_006074, SEQ ID NO: 9 (protein, listed as Homo sapiens)
chain: MDFSVKVDIEKEVTCPICLELLTEPLSLDCGHSFCQACITAKIKESVIISRGESSCPVCQTRFQPGNLRPNRHLANIVERVKEVKMSPQEGQKRDVCEHHGKKLQIFCKEDGKVICWVCELSQEHQGHQTFRINEVVKECQEKLQVALQRLIKEDQEAEKLEDDIRQERTAWKNYIQIERQKILKGFNEMRVILDNEEQRELQKLEEGEVNVLDNLAAATDQLVQQRQDASTLISDLQRRLRGSSVEMLQDVIDVMKRSESWTLKKPKSVSKKLKSVFRVPDLSGMLQVLKELTDVQYYWVDVMLNPGSATSNVAISVDQRQVKTVRTCTFKNSNPCDFSAFGVFGCQYFSSGKYYWEVDVSGKIAWILGVHSKISSLNKRKSSGFAFDPSVNYSKVYSRYRPQYGYWVIGLQNTCEYNAFEDSSSSDPKVLTLFMAVPPCRIGVFLDYEAGIVSFFNVTNHGALIYKFSGCRFSRPAYPYFNPWNCLVPMTVCPPSS
binding to GST-Galectin-3 in GST pulldown [1]: bound
binding to GST-Galectin-8 in GST pulldown [2]: bound

Continued, values first:

binding to GST-Galectin-3 in GST pulldown [1]: did not
binding to GST-Galectin-8 in GST pulldown [2]: did not
B1: TRIM56: TRIM protein, Accession No. NM_030961, SEQ ID NO: 10 (protein, listed as Homo sapiens)
chain: MVSHGSSPSLLEALSSDFLACKICLEQLRAPKTLPCLHTYCQDCLAQLADGGRVRCPECRETVPVPPEGVASFKTNFFVNGLLDLVKARACGDLRAGKPACALCPLVGGTSTGGPATARCLDCADDLCQACADGHRCTRQTHTHRVVDLVGYRAGWYDEEARERQAAQCPQHPGEALRFLCQPCSQLLCRECRLDPHLDHPCLPLAEAVRARRPGLEGLLAGVDNNLVELEAARRVEKEALARLREQAARVGTQVEEAAEGVLRALLAQKQEVLGQLRAHVEAAEEAARERLAELEGREQVARAAAAFARRVLSLGREAEILSLEGAIAQRLRQLQGCPWAPGPAPCLLPQLELHPGLLDKNCHLLRLSFEEQQPQKDGGKDGAGTQGGEESQSRREDEPKTERQGGVQPQAGDGAQTPKEEKAQTTREEGAQTLEEDRAQTPHEDGGPQPHRGGRPNKKKKFKGRLKSISREPSPALGPNLDGSGLLPRPIFYCSFPTRMPGDKRSPRITGLCPFGPREILVADEQNRALKRFSLNGDYKGTVPVPEGCSPCSVAALQSAVAFSASARLYLINPNGEVQWRRALSLSQASHAVAALPSGDRVAVSVAGHVEVYNMEGSLATRFIPGGKASRGLRALVFLTTSPQGHFVGSDWQQNSVVICDGLGQVVGEYKGPGLHGCQPGSVSVDKKGYIFLTLREVNKVVILDPKGSLLGDFLTAYHGLEKPRVTTMVDGRYLVVSLSNGTIHIFRVRSPDS

binding to GST-Galectin-3 in GST pulldown [1]: did not
binding to GST-Galectin-8 in GST pulldown [2]: did not
B2: TRIM55: TRIM (tripartite motif) protein tested in GST-Galectin pulldowns (protein)
chain: MSASLNYKSFSKEQQTMDNLEKQLICPICLEMFTKPVVILPCQHNLCRKCASDIFQASNPYLPTRGGTTMASGGRFRCPSCRHEVVLDRHGVYGLQRNLLVENIIDIYKQESTRPEKKSDQPMCEEHEEERINIYCLNCEVPTCSLCKVFGAHKDCQVAPLTHVFQRQKSELSDGIAILVGSNDRVQGVISQLEDTCKTIEECCRKQKQELCEKFDYLYGILEERKNEMTQVITRTQEEKLEHVRALIKKYSDHLENVSKLVESGIQFMDEPEMAVFLQNAKTLLKKISEASKAFQMEKIEHGYENMNHFTVNLNREEKIIREIDFYREDEDEEEEEGGEGEKEGEGEVGGEAVEVEEVENVQTEFPGEDENPEKASELSQVELQAAPGALPVSSPEPPPALPPAADAPVTQGEVVPTGSEQTTESETPVPAAAETADPLFYPSWYKGQTRKATTNPPCTPGSEGLGQIGPPGSEDSNVRKAEVAAAAASERAAVSGKETSAPAATSQIGFEAPPLQGQAAAPASGSGADSEPARHIFSFSWLNSLNE
modifications: left off: small tags and cut ends
notes: as for B3

binding to GST-Galectin-3 in GST pulldown [1]: bound
binding to GST-Galectin-8 in GST pulldown [2]: bound
B5: TRIM 17: TRIM (tripartite motif) protein tested in GST-Galectin pulldowns (protein)
chain: MEAVELARKLQEEATCSICLDYFTDPVMTTCGHNFCRACIQLSWEKARGKKGRRKRKGSFPCPECREMSPQRNLLPNRLLTKVAEMAQQHPGLQKQDLCQEHHEPLKLFCQKDQSPICVVCRESREHRLHRVLPAEEAVQGYKLKLEEDMEYLREQITRTGNLQAREEQSLAEWQGKVKERRERIVLEFEKMNLYLVEEEQRLLQALETEEEETASRLRESVACLDRQGHSLELLLLQLEERSTQGPLQMLQDMKEPLSRKNNVSVQCPEVAPPTRPRTVCRVPGQIEVLRGFLEDVVPDATSAYPYLLLYESRQRRYLGSSPEGSGFCSKDRFVAYPCAVGQTAFSSGRHYWEVGMNITGDALWALGVCRDNVSRKDRVPKCPENGFWVVQLSKGTKYLSTFSALTPVMLMEPPSHMGIFLDFEAGEVSFYSVSDGSHLHTYSQATFPGPLQPFFCLGAPKSGQMVISTVTMWVKG
modifications: left off: small tags and cut ends
notes: as for B3
